This is an account of results in patent US20190169289A1.

Bounds are passed on as bounds.

Assay [1] concerns the target anti-GCN4 (52SR4 scFv) sCAR with CD8 hinge. As to the kind of experiment: flow cytometry of CD8 sCAR T cells; filled histogram with a second peak at about 10^4 against a dashed control histogram; the legend names an AF647 conjugate, the axis prints APC. In general terms: In flow cytometry, cells or beads pass a laser one at a time.
Assay [2] has as its target CART19. The assay can be described thus: flow cytometry of CART19 T cells; filled histogram with a second population at about 10^3-10^4 against a dashed control histogram; the legend names an AF647 conjugate, the axis prints APC.
Assay [3] deals with HLA molecules on T2 cells loaded with the NY-ESO-1 peptide. As to the kind of experiment: cell-based or functional assay.

Chain of anti-GCN4 (52SR4 scFv) sCAR with CD8 hinge (chain, as listed by the source limits assumed): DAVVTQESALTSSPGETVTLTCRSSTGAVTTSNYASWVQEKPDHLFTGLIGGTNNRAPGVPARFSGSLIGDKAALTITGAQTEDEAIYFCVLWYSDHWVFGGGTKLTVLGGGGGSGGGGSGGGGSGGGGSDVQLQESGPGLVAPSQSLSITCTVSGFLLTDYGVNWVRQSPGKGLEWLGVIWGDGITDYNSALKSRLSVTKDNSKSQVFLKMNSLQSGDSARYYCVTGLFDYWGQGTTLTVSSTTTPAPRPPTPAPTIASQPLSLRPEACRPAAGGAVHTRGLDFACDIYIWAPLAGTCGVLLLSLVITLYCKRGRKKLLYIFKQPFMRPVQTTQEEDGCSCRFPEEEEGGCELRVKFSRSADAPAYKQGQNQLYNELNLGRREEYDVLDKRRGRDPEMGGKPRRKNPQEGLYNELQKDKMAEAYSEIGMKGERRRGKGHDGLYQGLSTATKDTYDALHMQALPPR
Chain of CART19 (chimeric antigen receptor, as listed by the source limits assumed): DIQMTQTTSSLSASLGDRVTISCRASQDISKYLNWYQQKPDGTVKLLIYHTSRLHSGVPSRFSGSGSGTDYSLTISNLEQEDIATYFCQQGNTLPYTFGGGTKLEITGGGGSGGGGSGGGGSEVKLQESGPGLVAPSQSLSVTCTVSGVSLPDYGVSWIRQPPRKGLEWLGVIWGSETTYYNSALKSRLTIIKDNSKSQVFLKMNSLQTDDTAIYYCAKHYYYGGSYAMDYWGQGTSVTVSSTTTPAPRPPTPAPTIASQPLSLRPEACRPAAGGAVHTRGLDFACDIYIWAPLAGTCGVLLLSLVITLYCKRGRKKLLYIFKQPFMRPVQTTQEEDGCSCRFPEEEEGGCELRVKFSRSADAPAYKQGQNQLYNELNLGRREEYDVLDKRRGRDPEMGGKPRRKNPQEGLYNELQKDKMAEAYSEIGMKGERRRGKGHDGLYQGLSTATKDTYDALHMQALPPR

“APC-conjugated goat-anti mouse IgG (H&L) polyclonal antibody”: the values for the number beside the gate bar of the histogram (share of cells in the positive gate; name not given) in assay [1] and in assay [2] were 69.3 and 53.3, respectively.

Consider “NY-ESO-1 specific soluble TCR 1G4c113 with C-terminal GCN4 peptide and 6x HIS tag on the beta chain”, for which, in assay [3], the sTCR switch concentration at which IFNg, IL-2 and TNFa are produced was greater than 10 pM; the sTCR switch concentration at which T cells express CD25 and CD69 was greater than 1 pM.
